Laboratory results taken from article PMC7611467 (Journal of molecular biology, 2020).
Substitutions are numbered along the chain they refer to.

B1: W37only single-Trp mutant of MgtE (natural protein, Thermus thermophilus, UniProt Q5SMG8 1-450, looked up)
chain: MEEKLAVSLQEALQEGDTRALREVLEEIHPQDLLALWDELKGEHRYVVLTLLPKAKAAEVLSHLSPEEQAEYLKTLPPFRLREILEELSLDDLADALQAVRKEDPAYFQRLKDLLDPRTRAEVEALARYEEDEAGGLMTPEYVAVREGMTVEEVLRFLRRAAPDAETIYYIYVVDEKGRLKGVLSLRDLIVADPRTRVAEIMNPKVVYVRTDTDQEEVARLMADYDFTVLPVVDEEGRLVGIVTVDDVLDVLEAEATEDIHKLGAVDVPDLVYSEAGPVALFLARVRFLVILILTGMVTSSILQGFESVLEAVTALAFYVPVLLGTGGNTGNQSATLIIRALATRDLDLRDFRRVFLKEMGVGLLLGLTLSFLLVGKVYFDGHPLLLPVVGVSLVLIVFFANLVGAMLPFLLRRLGVDPALVSNPLVATLSDVTGLLIYLSVARLLLEAV
B2: W79only single-Trp mutant of MgtE (natural protein, Thermus thermophilus, UniProt Q5SMG8 1-450, looked up)
chain: B1 chain with W37F, F79W
B3: W380only single-Trp mutant of MgtE (natural protein, Thermus thermophilus, UniProt Q5SMG8 1-450, looked up)
chain: B1 chain with W37F, F380W
B4: W352only single-Trp mutant of MgtE (natural protein, Thermus thermophilus, UniProt Q5SMG8 1-450, looked up)
chain: B1 chain with W37F, F352W
B5: W288only single-Trp mutant of MgtE (natural protein, Thermus thermophilus, UniProt Q5SMG8 1-450, looked up)
chain: B1 chain with W37F, F288W
B6: W282only single-Trp mutant of MgtE (natural protein, Thermus thermophilus, UniProt Q5SMG8 1-450, looked up)
chain: B1 chain with W37F, F282W

Biological target: the molecule itself
Assay: SEC

Binding result, binds:
B1
B2
B3
B4
B5
B6
